The record followed here is the nanobody polyreactivity screen of Harvey et al. (2022).

The nature of the series: yeast display, Sf9 membrane polyspecificity reagent, FACS + sequencing; frameworks hold sequencing errors. The method in brief:
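Genes from sorted yeast were amplified by colony PCR, read by MiSeq 2 × 250 sequencing and filtered on CDR length. These cells carried a synthetic nanobody library in Saccharomyces cerevisiae BJ5465 and were sorted by FACS into low and high (top ~1%) gates on anti-HA and streptavidin fluorescence. Polyreactivity is labelled according to the gate of origin.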
“QVQLVESGGGLVQAGGSLRLSCAASGSIFSGNAMGGYRQAPGKERELVAAISRTGTRTFYADSEKGRFTISRDNAKNTVYLQMNSLKPEDTAVYYCAADNPDGDGYDYWGQGTQVTVSS”: the “polyreactivity (PSR sort gate)” value is “high polyreactivity”.
Regarding “QVQLVESGGGLVQAGGSLRLSCAASGSIFSGNAMGWYRPAPGKGRELVAGSSRRGGRTYYADSVKGRFTISRDNAKNTVYIPMNSLKPEDPAVYYCNKDVFGDTREYDYWGQGTQVTVSS”, the “polyreactivity (PSR sort gate)” value is “high polyreactivity”.
For “QVQLVESGGGLVQAGGSLRLSCAASGSIFSGNAMGWYRQAPGKERELVASINRSGGSTYYADSVKGRFTISRDNAKNTVYLLMNSLKPEDTAVYYCAARRVWLAGYDSWGQGTQVTVSS”, the “polyreactivity (PSR sort gate)” value was “low polyreactivity”.
On to “QVQLVESGGGLVQAGGSLRLSCAASGSIFSGYAMGWYRQAPGKERELVAAINWTGDSTYYADSVKGRFTISRDNAKNTVYLQMNSLKPEDTAVYYCAAIRRQKGLWDYYYWGQGSQVTVSS”, for which the “polyreactivity (PSR sort gate)” value is recorded as “low polyreactivity”.
With “QVQLVESGGGLVQAGGSLRLSCAASGSIFSINAMGWYRQAPGKERELVAAISWDGGSTYYADSVKGRFTISRDNAKYTVYLQKNSLKPEDTAVYYCNAAGYVPRNIFAGSRSLRYDYWGQGTQVTVSS” the entry was “high polyreactivity”; with “QVQLVESGGGLVQAGGSLRLSCAASGSIFSINAMGWYRQAPGKERELVAVISWIGGNTYYADSVKGRFTISRDNAKNTVYLQMNSLKPEDTAVYYCAVATGPVSYRRYYWGQGTQVTVSS”, “high polyreactivity”; with “QVQLVESGGGLVQAGGSLRLSCAASGSIFSINARGWYRQAPGKERELVAAITYSTGSTYYADSVKGRFTISRDNAKNTVYLQMNSLKPEDTAVYYCAAVYKRTYLHSQTYGYYYWGQGTQVTVSS”, “high polyreactivity”.
With “QVQLVESGGGLVQAGGSLRLSCAASGSIFSINTMGWYRQAPGKERELVAAITRSGSGTYYADSVKGRFTISRDNAKNTVYLQMNSLKPEDTAVYYCAKPAGARLGYWGQGTQVTVSS” the entry was “low polyreactivity”; with “QVQLVESGGGLVQAGGSLRLSCAASGSIFSINTMVWYRLAPGKERELVAAISRTGGSTYYADSVKGRFTNSRDNAKNTVYLQMNSLKPEDTAVYYCGKDRRRSTYEYWGQCTQVTVSS”, “high polyreactivity”.
With “QVQLVESGGGLVQAGGSLRLSCAASGSIFSIYAMGWYRQAPGKERELVASITRSSGRTYYADSVKGRFTISRDNAKNTVYLQMNSLKPEDTAVYYCAKDYIPLALDADDYWGQGTQVTVSS” the entry was “low polyreactivity”.
As to “QVQLVESGGGLVQAGGSLRLSCAASGSIFSKNAIGWYRQAPGKERELVDAISASGASTYYADSVKGRFTISRDNEKNTVYLQMNSLKPEDTAVYYCNADVSGVSSYGRSYEFYYWGQGTQVTVSS”, the “polyreactivity (PSR sort gate)” value is reported as “low polyreactivity”.
For “QVQLVESGGGLVQAGGSLRLSCAASGSIFSKNTMGWYRQAPGKEREFVARISVRGGSTYYADSVKGRFTISRDNAKNTVYLQMNSLKPEDTAVYYCNAAHTVTQNSRNSDYWGQGTQVTVSS”, the “polyreactivity (PSR sort gate)” value is “high polyreactivity”.
With “QVQLVESGGGLVQAGGSLRLSCAASGSIFSKYVMGWYRQAPGKEMELVASITSGGRTNYADSVKGRFTISRDNAKNTVYLQMNSLKPEDTAVYYCAARALKTWYRSGVDYWGQGTQVTVSS” the entry was “low polyreactivity”.
With “QVQLVESGGGLVQAGGSLRLSCAASGSIFSLNAMGWYRQAPGKERELVAAINSGGTSTYYADSVKGRFTMSRDNAKNTVYLHMKSLKPEDTAVYYCAKRQRDYSSVFDVDYWGQGTQVTVSS” the entry was “low polyreactivity”; with “QVQLVESGGGLVQAGGSLRLSCAASGSIFSLYAMGCYIQAHGKERELVAAISRGGSTNYADSVKGRFTISRDNAKNTVYLQMNSLKPEDTAVDYCNAGFGVRRKHITFYTWYDYWGQGTQVTVSS”, “low polyreactivity”.
With “QVQLVESGGGLVQAGGSLRLSCAASGSIFSNYAMGGYRQAPGKERELVAAISRNGGSTSYADSVKGRFTISRDNAKNTVYLQMNSLKPEDTAVYYCAKRYKTAQYYYWGQGTQVTVSS” the entry was “high polyreactivity”; with “QVQLVESGGGLVQAGGSLRLSCAASGSIFSPNAMGWYRQAPGKERELVATISFSGGRTYYADSVKGRFTISRDNAKNTVYLQMNSLKPEDTAVYYCAKAYYYTDMDYWGQGTQVTVSS”, “low polyreactivity”; with “QVQLVESGGGLVQAGGSLRLSCAASGSIFSPYAMGWYRQAPGKERELVAAIRWGGGGTYADSVKGRFTISRDNAKNTVYLQMNSLKPEDTAVYYCAARRRSRRGYDYWGQGTQVTVSS”, “high polyreactivity”.
As to “QVQLVESGGGLVQAGGSLRLSCAASGSIFSPYAMGWYRQAPGKERELVAAISFRASTTYYADSVKGRFTISRDNAKNTVYLQMNSLKPEDTAVYYCAASPLYSWFWGLYDYWGQGTQVTVSS”, the “polyreactivity (PSR sort gate)” value is “low polyreactivity”.
With “QVQLVESGGGLVQAGGSLRLSCAASGSIFSPYAMGWYRQAPGKERELVDAISFRASTTYYADSVKGRFTISRDNAKNTVYLQMNSLKPEDTAVYYCAASPLYSWFWGLYDYWGQGTQVTVSS” the entry was “low polyreactivity”; with “QVQLVESGGGLVQAGGSLRLSCAASGSIFSQNAMGWYRQAPGKERELVASITYSGGSTYYADSVKGRFTISRDNAKNTVYFQMNSLKPEDTEVYYCAADVRYSSRFYYWGQGTQVTVSS”, “high polyreactivity”.
With “QVQLVESGGGLVQAGGSLRLSCAASGSIFSQYAMGCYREAPGKERELVAAISSSGDSTNYADSVKGRFTISRDNAKNTVYLQMNSLKPEDTGVYDCAADPYYFYIWYWWPSFDYWGQGTQVTVSS” the entry was “low polyreactivity”.
Consider “QVQLVESGGGLVQAGGSLRLSCAASGSIFSQYAMGSYRQAPGKERELVAAITSGGRTYYADSVKGRFTISRDNAKNTVYLQMNSLKPEDTAVYYCAASRRGGGLDYWGQGTKVTVSS”, for which the “polyreactivity (PSR sort gate)” value was “high polyreactivity”.
With “QVQLVESGGGLVQAGGSLRLSCAASGSIFSQYAMGWYRQAPGKERELVAAISASGGRTYYADSVKGRFTISRDNAKNTVYLQMNSLKPEDTAVYYCNAAHGSNRYSFVNPFYYWGQGTQVTVSS” the entry was “high polyreactivity”; with “QVQLVESGGGLVQAGGSLRLSCAASGSIFSQYAMGWYRQAPGKERELVAAITYGGGSTYYADSVKGRFTISRDNAKNTVYLQMNSLKPEDTAVYYCAKEFKYWGYPYDYWGQGTQVTVSS”, “low polyreactivity”; with “QVQLVESGGGLVQAGGSLRLSCAASGSIFSRNAMGWYRQAPGTERELVAAITDSTGTTYYADSVKGRFTISRDNAKNTVYLQMNSLKPEDTAVYYCNAVGVPQGNFYVRGDDYWGQGTQVTVSS”, “low polyreactivity”.
With “QVQLVESGGGLVQAGGSLRLSCAASGSIFSRNTLGWYRQAPGKERELVAAITRGGSTDYADSVKGRFTISRDNAKNTVYLQMNSLKPEDTAVYYCAKKTPGWGKFDYWGQGTQVTVSS” the entry was “low polyreactivity”.
With “QVQLVESGGGLVQAGGSLRLSCAASGSIFSRNVMGWSRQAPGKERELVAGISWRGGRTYYADSVKGRFTISRDNAMITVYLQMTSLKPEDTAVYYCAKGGVSYGEGDYWGQGTQVTVSS” the entry was “high polyreactivity”.
Consider “QVQLVESGGGLVQAGGSLRLSCAASGSIFSRYAMGWYRQAPGKERELVAAISSSGSSTYYADSVKGRFTISRDNAKNTVYLQMNSLKPEDTAVYYCAATGYPRFGYWGQGTQVTVSS”, for which the “polyreactivity (PSR sort gate)” value is listed as “high polyreactivity”.
Turning to “QVQLVESGGGLVQAGGSLRLSCAASGSIFSRYAMGWYRQAPGKERELVAAITSSGTSTYYADSVKGRFTISRDNAKNTVYLQMNSLKPEDTAVYYCAAAFRQRTSRFDYWGQGSQVTVSS”, the “polyreactivity (PSR sort gate)” value is reported as “high polyreactivity”.
As for “QVQLVESGGGLVQAGGSLRLSCAASGSIFSRYAMGWYRQAPGKERELVADITTRGGRTYYADSVKGRFTISRDNAKNTVYLQMNSLKPEDTAVYYCATLHSYRYRGGGDYWGQGTQVTVSS”, the “polyreactivity (PSR sort gate)” value was “high polyreactivity”.
Take “QVQLVESGGGLVQAGGSLRLSCAASGSIFSRYAMVWYRQAPGKERELVAAISWSGGRTYYADSVKGRFTISRDNAKNTVYLQMNSLKPEDTAVYYCAAPSYTTSWRYDYWGQGTQVTVSS”: the “polyreactivity (PSR sort gate)” value is on record as “high polyreactivity”.
On to “QVQLVESGGGLVQAGGSLRLSCAASGSIFSRYTMGWYRQAPGKERELVAAISSGGSTNYADSVKGRFTISRDNAKNTVYLQMNRLKPEDTAVYYCAARSYRYYYGFDYWGQGTQVTVSS”, for which the “polyreactivity (PSR sort gate)” value is listed as “low polyreactivity”.
Regarding “QVQLVESGGGLVQAGGSLRLSCAASGSIFSRYTMGWYRQAPGKERELVAAISYSGTRTYYADSVKGRFTISRDNAKNTVYLQMNSLKPEDTAVYYCAAIASPAGSNYWGQGTQVTVSS”, the “polyreactivity (PSR sort gate)” value was “high polyreactivity”.
With “QVQLVESGGGLVQAGGSLRLSCAASGSIFSRYTMGWYRQAPGKERELVAAITSSGVSTYYADSVKGRFTISRDNAKNTVYLQMNSLKPEDTAVYYCAAYSVFRSYDYWGQGTQVTVSS” the entry was “high polyreactivity”; with “QVQLVESGGGLVQAGGSLRLSCAASGSIFSRYTMGWYRQAPGKERELVAVISTSGGSTYYADSVKGRFTISRDNAKNTVYLQMNSLKPEDTAVYYCNARPKRGSLGGPGYGYWGQGTQVTVSS”, “high polyreactivity”; with “QVQLVESGGGLVQAGGSLRLSCAASGSIFSSNAMGWYRPAPGKERELVAAITSGGSTTYADSVKGRFTISRDNAKNTVYLQMNSLKPEDTAVYYCNARNYYYPSDRDYWGQGTQVTVSS”, “low polyreactivity”.
Consider “QVQLVESGGGLVQAGGSLRLSCAASGSIFSSNAMGWYRQAPGKERELVAAITSGGSTTYADSVKGRFTISRDNAKNTVYLQMNSLKPEDTAVYYCAADPVYRYYHGWTYLDYDYWGQGTQVTVSS”, for which the “polyreactivity (PSR sort gate)” value is recorded as “low polyreactivity”.
With “QVQLVESGGGLVQAGGSLRLSCAASGSIFSSNAMGWYRQAPGKERELVAAITVSGGSTYYADSVKGRFTISRDNAKNTVYLQMNSLKPEDTAVYDCAVPVTYYFDGSWWRYDYWGQGTQVTVSS” the entry was “high polyreactivity”; with “QVQLVESGGGLVQAGGSLRLSCAASGSIFSSNAMGWYRQAPGTTNYADSVKGRFTISRDNAKNTVYLQMNSLKPEDTAVYYCAKDYVLFQYVDFQDDDYWGQGTQVTVSS”, “low polyreactivity”; with “QVQLVESGGGLVQAGGSLRLSCAASGSIFSSNTMGWYRQAHGKERELVAAITVSGGRTYYADSVKGRFTISRDNAKNTVYLQMNSLKPEDTAVYYCATRWFGNSYSYRAYDYWGQGTQVTVSS”, “high polyreactivity”.
